Target: the molecule itself
Assay: SEC-MALS

B1: recombinant bovine αA-crystallin Y118D mutant (natural protein)
chain: MDIAIQHPWFKRTLGPFYPSRLFDQFFGEGLFEYDLLPFLSSTISPYYRQSLFRTVLDSGISEVRSDRDKFVIFLDVKHFSPEDLTVKVQEDFVEIHGKHNERQDDHGYISREFHRRDRLPSNVDQSALSCSLSADGMLTFSGPKIPSGVDAGHSERAIPVSREEKPSSAPSS
With B1 the “stoichiometry N” value was 75 subunits.

Source: article PMC3001329 (Investigative ophthalmology & visual science, 2009)
